Laboratory results taken from patent US20120134979A1, “METHODS AND COMPOSITIONS FOR THE TREATMENT OF SICKLE CELL DISEASE” (priority 2010, published 2012).

Legend:
Format in all cases: in vivo, mouse
SCD Tg mice [1] = assay: Hypoxia/reoxygenation-induced acute sickle crisis in SCD Tg mice with PEG-ADA pretreatment
Method: Adenosine Analysis. The adenosine concentration present in whole blood was measured by HPLC as previously described (Knudsen, T. B., et al. Effects of (R)-deoxycoformycin (pentostatin) on intrauterine nucleoside catabolism and embryo viability in the pregnant mouse. Teratology 45, 91-103, 1992) with modifications. In brief, 500 μl of 0.6 M cold perchloric acid was added to 500 μl blood on ice, mixed using a vertex mixer and subsequently subject to sonication for 10 seconds with output 6 (W-220F, Heat Systems-Ultrasonic, Inc.). The homogenate was centrifuged at 20,000 g for 10 min at […]. The supernatant (568 μl) was transferred to a new tube and neutralized with 40.9 μl 3 M KHCO3/3.6 N KOH. Phenol red (2 μl of 0.2 mg/ml) was added as indicator. The sample was acidified with 5.7 μl of 1.8 M ammonium dihydrogen phosphate (pH 5.1) and 13.2 μl phosphoric acid (30%). Finally, the sample was centrifuged at 20,000 g for 5 min and the supernatant was transferred to a new tube and stored at −20° C. Before HPLC assay, the sample was thawed on ice, then centrifuged at 20,000 g for 10 minutes. The supernatant was transferred to a new tube for HPLC analysis as described previously (Aldrich, et al. Adenosine deaminase-deficient mice: models for the study of lymphocyte development and adenosine signaling. Adv Exp Med. Biol. 2000; 486, 57-63; Blackburn, et al. Metabolic and immunologic consequences of limited adenosine deaminase expression in mice. The Journal of Biological Chemistry. 1996; 271(25):15203-15210). Plasma adenosine measurements were performed as with whole blood, except the sonication step was omitted. Adenosine content was normalized to volume.
Hypoxia/reoxygenation of SCD Tg mice. SCD Tg mice were subjected to two-hour hypoxic condition with 8% oxygen. After hypoxia, mice were returned to normoxic conditions for four hours Wallace, et al. NKT cells mediate pulmonary inflammation and dysfunction in murine sickle cell disease through production of IFN-gamma and CXCR3 chemokines. Blood. 2009; 114(3):667-676). At the end of the experiments, mice were sacrificed and blood collected for adenosine measurement, sickling and hemolytic analysis.
Morphological study of erythrocytes and quantification of reticulocytes by flow cytometry. Blood smears were stained using the WG16-500 ml kit (Sigma-Aldrich) for sickled cells and observed using 100× oil immersion objective of Olympus BX60 microscope. […] The percentages of sickled cells among the counted cells were calculated. Reticulocyte was labeled by Retic-COUNT Reagent (Becton Dickinson) and quantified by flow cytometry (Perumbeti, et al., A novel human gamma-globin gene vector for genetic correction of sickle cell anemia in a humanized sickle mouse model: critical determinants for successful correction. Blood. 2009; 114(6):1174-1185).
2,3-DPG analysis. 2,3-DPG concentration in RBCs was detected by a commercially available kit (Roche, Nutley, N.J., and as described in Ericson A, de Verdier C H. A modified method for the determination of 2,3-diphosphoglycerate in erythrocytes. Scandinavian journal of clinical and laboratory investigation. 1972; 29(1):84-90).
(§1) Hemolytic analysis. The hemoglobin, haptoglobin and total bilirubin in mouse plasma were quantified by ELISA kits following instructions provided by the vendor (BioAssay Systems, Hayword, Calif.).

SCD Tg mice [2] = assay: Plasma adenosine levels in SCD Tg mice under weekly PEG-ADA; details: weekly injection 2.5 U/week for 8 weeks
Method: Adenosine Analysis. […] B., et al. Effects of (R)-deoxycoformycin (pentostatin) on intrauterine nucleoside catabolism and embryo viability in the pregnant mouse. Teratology 45, 91-103, 1992) with modifications. In brief, 500 μl of 0.6 M cold perchloric acid was added to 500 μl blood on ice, mixed using a vertex mixer and subsequently subject to sonication for 10 seconds with output 6 (W-220F, Heat Systems-Ultrasonic, Inc.). The homogenate was centrifuged at 20,000 g for 10 min at […]. The supernatant (568 μl) was transferred to a new tube and neutralized with 40.9 μl 3 M KHCO3/3.6 N KOH. Phenol red (2 μl of 0.2 mg/ml) was added as indicator. The sample was acidified with 5.7 μl of 1.8 M ammonium dihydrogen phosphate (pH 5.1) and 13.2 μl phosphoric acid (30%). Finally, the sample was centrifuged at 20,000 g for 5 min and the supernatant was transferred to a new tube and stored at −20° C. Before HPLC assay, the sample was thawed on ice, then centrifuged at 20,000 g for 10 minutes. […]

SCD Tg mice [3] = assay: Hemolytic analysis of plasma of SCD Tg mice after chronic treatment; details: chronic PEG-ADA treatment
Method: Chronic PEG-ADA therapy. SCD transgenic mice, at eight weeks of age, were divided to two groups. One group was injected with 2.5 U PEG-ADA weekly for 8 weeks. This dosing protocol was designated SCD with PEG-ADA treatment regimen (SCD+PEG-ADA). Another group was injected with normal saline for 8 weeks; it was designated as SCD without PEG-ADA treatment regimen (SCD). Wild-type mice (C57Bl/6) used as control were injected with saline or PEG-ADA as with the SCD groups.
as §1

[4] = SCD Tg mice, 2 h hypoxia/4 h reoxygenation, PEG-ADA pretreatment
[5] = SCD Tg mice, hypoxic/reoxygenation condition

B1: PEG-ADA: polyethylene glycol-modified adenosine deaminase, a drug used to lower adenosine concentrations in ADA-deficient humans (protein, UniProt P56658 2-363, looked up)
Adenosine deaminase: AQTPAFNKPKVELHVHLDGAIKPETILYYGRKRGIALPADTPEELQNIIGMDKPLSLPEFLAKFDYYMPAIAGCREAVKRIAYEFVEMKAKDGVVYVEVRYSPHLLANSKVEPIPWNQAEGDLTPDEVVSLVNQGLQEGERDFGVKVRSILCCMRHQPSWSSEVVELCKKYREQTVVAIDLAGDETIEGSSLFPGHVKAYAEAVKSGVHRTVHAGEVGSANVVKEAVDTLKTERLGHGYHTLEDATLYNRLRQENMHFEVCPWSSYLTGAWKPDTEHPVVRFKNDQVNYSLNTDDPLIFKSTLDTDYQMTKNEMGFTEEEFKRLNINAAKSSFLPEDEKKELLDLLYKAYGMPSPASAEQCL
modifications: PEGylated
2,3-DPG elevation by hypoxia/reoxygenation (SCD Tg mice [1]; SCD Tg mice RBCs, PEG-ADA pretreatment): significantly inhibited its elevation
plasma adenosine levels (SCD Tg mice [1]; [4]): significantly lowered
plasma hemoglobin (SCD Tg mice [1]; [4]): decreased
plasma total bilirubin (SCD Tg mice [1]; [4]): decreased
sickling (SCD Tg mice [1]; [4]): reduced
HCT (SCD Tg mice [1]; [5]): 21.25 ± 2.52 %
Hb (SCD Tg mice [1]; [5]): 4.58 ± 0.38 g/dL
MCH (SCD Tg mice [1]; [5]): 9.12 ± 0.72 pg
MCHC (SCD Tg mice [1]; [5]): 18.65 ± 1.82 g/dL
MCV (SCD Tg mice [1]; [5]): 48.93 ± 2.05 fL
RBC (SCD Tg mice [1]; [5]): 4.94 ± 0.17 M/μl
RDW (SCD Tg mice [1]; [5]): 29.72 ± 1.95 %
WBC (SCD Tg mice [1]; [5]): 18.68 ± 3.32 k/μl
Adenosine levels in the plasma at different time points (SCD Tg mice [2]): lowered adenosine to a steady level within two weeks
plasma Hb (SCD Tg mice [3]): decreased
plasma haptoglobin (SCD Tg mice [3]): increased
total bilirubin (SCD Tg mice [3]): decreased
